Test results taken from the supplement of paper PMC11246515.
± gives the standard deviation of the averaged measurements.

Assay: total protein half-life in vivo (active degradation + dilution); higher = more stable protein
[1] = E. coli NCM3722 delta-clpP delta-lon delta-hslV, growth: N-lim chemostat, doubling time 6 h
[2] = E. coli NCM3722 delta-clpP, growth: N-lim chemostat, doubling time 6 h
[3] = E. coli NCM3722 delta-hslV, growth: N-lim chemostat, doubling time 6 h
[4] = E. coli NCM3722 delta-lon, growth: N-lim chemostat, doubling time 6 h
[5] = wild type E. coli NCM3722, growth: C-lim chemostat, doubling time 3 h
[6] = wild type E. coli NCM3722, growth: C-lim chemostat, doubling time 6 h
[7] = wild type E. coli NCM3722, growth: C-lim chemostat, doubling time 12 h
[8] = wild type E. coli NCM3722, growth: N-lim chemostat, doubling time 12 h
[9] = wild type E. coli NCM3722, growth: P-lim chemostat, doubling time 6 h
[10] = wild type E. coli NCM3722, growth: P-lim chemostat, doubling time 12 h
[11] = E. coli NCM3722 delta-smpB, growth: N-lim chemostat, doubling time 6 h
[12] = wild type E. coli NCM3722, growth: N-lim chemostat, doubling time 6 h

Sequence	total protein half-life in vivo [1] [h]	total protein half-life in vivo [2] [h]	total protein half-life in vivo [3] [h]	total protein half-life in vivo [4] [h]	total protein half-life in vivo [5] [h]	total protein half-life in vivo [6] [h]	total protein half-life in vivo [7] [h]	total protein half-life in vivo [8] [h]	total protein half-life in vivo [9] [h]	total protein half-life in vivo [10] [h]	total protein half-life in vivo [11] [h]	total protein half-life in vivo [12] [h]
MNDTSFENCIKCTVCTTACPVSRVNPGYPGPKQAGPDGERLRLKDGALYDEALKYCINCKRCEVACPSDVKIGDIIQRARAKYDTTRPSLRNFVLSHTDLMGSVSTPFAPIVNTATSLKPVRQLLDAALKIDHRRTLPKYSFGTFRRWYRSVAAQQAQYKDQVAFFHGCFVNYNHPQLGKDLIKVLNAMGTGVQLLSKEKCCGVPLIANGFTDKARKQAITNVESIREAVGVKGIPVIATSSTCTFALRDEYPEVLNVDNKGLRDHIELATRWLWRKLDEGKTLPLKPLPLKVVYHTPCHMEKMGWTLYTLELLRNIPGLELTVLDSQCCGIAGTYGFKKENYPTSQAIGAPLFRQIEESGADLVVTDCETCKWQIEMSTSLRCEHPITLLAQALA [P0A996]	6.38	–	–	–	–	–	–	–	–	–	–	–
MNEFFPLASAAGMTVGLAVCALIVGLALAMFFAVWESAKWRPVAWAGSALVTILRGLPEILVVLFIYFGSSQLLLTLSDGFTINLGFVQIPVQMDIENFDVSPFLCGVIALSLLYAAYASQTLRGALKAVPVGQWESGQALGLSKSAIFFRLVMPQMWRHALPGLGNQWLVLLKDTALVSLISVNDLMLQTKSIATRTQEPFTWYIVAAAIYLVITLLSQYILKRIDLRATRFERRPS [P0AE34]	7.86	6.25	6.66 ± 0.82	6.45	2.92 ± 0.51	6.02 ± 0.79	11.9 ± 0.15	11.5 ± 2.6	6.78	12.3 ± 0.57	–	–
MNELDGIKQFTTVVADSGDIESIRHYHPQDATTNPSLLLKAAGLSQYEHLIDDAIAWGKKNGKTQEQQVVAACDKLAVNFGAEILKIVPGRVSTEVDARLSFDKEKSIEKARHLVDLYQQQGVEKSRILIKLASTWEGIRAAEELEKEGINCNLTLLFSFAQARACAEAGVFLISPFVGRIYDWYQARKPMDPYVVEEDPGVKSVRNIYDYYKQHHYETIVMGASFRRTEQILALTGCDRLTIAPNLLKELQEKVSPVVRKLIPPSQTFPRPAPMSEAEFRWEHNQDAMAVEKLSEGIRLFAVDQRKLEDLLAAKL [P0A867]	5.487 ± 0.013	5.51 ± 0.43	5.35 ± 0.25	5.76 ± 0.63	3.12 ± 0.12	5.95 ± 0.33	11.7 ± 0.016	9.85 ± 1.3	5.9 ± 0.16	12.8 ± 0.16	5.19 ± 0.4	5.19 ± 0.21
MNEVVNSGVMNIASLVVSVVVLLIGLILWFFINRASSRTNEQIELLEALLDQQKRQNALLRRLCEANEPEKADKKTVESQKSVEDEDIIRLVAER	3.97 ± 0.73	6.38	–	1.45	2.6	–	–	–	2.17	3.4 ± 1.1	1.31	1.78
MNFQQLKIIREAARQDYNLTEVANMLFTSQSGVSRHIRELEDELGIEIFVRRGKRLLGMTEPGKALLVIAERILNEASNVRRLADLFTNDTSGVLTIATTHTQARYSLPEVIKAFRELFPEVRLELIQGTPQEIATLLQNGEADIGIASERLSNDPQLVAFPWFRWHHSLLVPHDHPLTQISPLTLESIAKWPLITYRQGITGRSRIDDAFARKGLLADIVLSAQDSDVIKTYVALGLGIGLVAEQSSGEQEEENLIRLDTRHLFDANTVWLGLKRGQLQRNYVWRFLELCNAGLSVEDIKRQVMESSEEEIDYQI	6.2 ± 1.1	2.47 ± 0.054	0.454	0.652	1.18 ± 0.11	1.156 ± 0.01	1.86	1.02	2.33 ± 0.71	4.48 ± 0.47	0.654	1.04 ± 0.049
MNGELIWVLSLLAVAIVLFATGRVRMDAVALFVIVAFALSGTLTVPEVFSGFSDPNVVLIAALFIIGDGLVRTGVATVMGTWLVKVAGNSEIKMLVLLMLTVAGLGAFMSSTGVVAIFIPVVLSVAMRMQTSPSRLMMPLSFAGLISGMMTLVATPPNLVVNSELLREGYHGFSFFSVTPIGLVVLVLGILYMLVMRFMLKGDTQTPQREGWTRRTFRDLIREYRLTGRARRLAIRPGSPMIGQRLDDLKLRERYGANVIGVERWRRFRRVIVNVNGVSEFRARDVLLIDMSAADVDLRQFCSEQLLEPMVLRGEYFSDQALDVGMAEISLIPESELIGKSVREIGFRTRYGLNVVGLKRNGVALEGSLADEPLLLGDIILVVGNWKLIGMLAKQGRDFVALNLPEEVSEASPAHSQAPHAIFCLVLMVALMLTDEIPNPVAAIIACLLMGKFRCIDAESAYKSIHWPSIILIVGMMPFAVALQKTGGVALAVKGLMDIGGGYGPHMMLGCLFVLSAVIGLFISNTATAVLMAPIALAAAKTMGVSPYPFAMVVAMAASAAFMTPVSSPVNTLVLGPGNYSFSDFVKLGVPFTIIVMAVCVVMIPMLFPF [P0AFU2]	–	–	6.68 ± 0.32	6.39 ± 0.64	> 4	5.46	–	12.4 ± 3.2	> 8	12.8 ± 1.7	6.29 ± 0.45	5.65 ± 1.7
MNGLLRIRQRYQGLAQSDKKLADYLLLQPDTARHLSSQQLANEAGVSQSSVVKFAQKLGYKGFPALKLALSEALASQPESPSVPIHNQIRGDDPLRLVGEKLIKENTAAMYATLNVNSEEKLHECVTMLRSARRIILTGIGASGLVAQNFAWKLMKIGFNAAAVRDMHALLATVQASSPDDLLLAISYTGVRRELNLAADEMLRVGGKVLAITGFTPNALQQRASHCLYTIAEEQATNSASISACHAQGMLTDLLFIALIQQDLELAPERIRHSEALVKKLV	5.79 ± 0.53	4.3186 ± 0.00083	2.83 ± 0.031	3.72 ± 0.33	2.44 ± 0.087	4.31 ± 0.2	5.65 ± 1.1	4.19 ± 0.29	3.73 ± 0.18	7.58 ± 1.8	3.5 ± 0.69	2.8 ± 0.11
MNIELLQQLCEASAVSGDEQEVRDILINTLEPCVNEITFDGLGSFVARKGNKGPKVAVVGHMDEVGFMVTHIDESGFLRFTTIGGWWNQSMLNHRVTIRTHKGVKIPGVIGSVAPHALTEKQKQQPLSFDEMFIDIGANSREEVEKRGVEIGNFISPEANFACWGEDKVVGKALDNRIGCAMMAELLQTVNNPEITLYGVGSVEEEVGLRGAQTSAEHIKPDVVIVLDTAVAGDVPGIDNIKYPLKLGQGPGLMLFDKRYFPNQKLVAALKSCAAHNDLPLQFSTMKTGATDGGRYNVMGGGRPVVALCLPTRYLHANSGMISKADYEALLTLIRGFLTTLTAEKVNAFSQFRQVD	–	–	–	3.4	2.53	–	–	–	4.06	9.711 ± 0.074	3.85 ± 0.0073	3.72
MNIFDHYRQRYEAAKDEEFTLQEFLTTCRQDRSAYANAAERLLMAIGEPVMVDTAQEPRLSRLFSNRVIARYPAFEEFYGMEDAIEQIVSYLKHAAQGLEEKKQILYLLGPVGGGKSSLAERLKSLMQLVPIYVLSANGERSPVNDHPFCLFNPQEDAQILEKEYGIPRRYLGTIMSPWAAKRLHEFGGDITKFRVVKVWPSILQQIAIAKTEPGDENNQDISALVGKVDIRKLEHYAQNDPDAYGYSGALCRANQGIMEFVEMFKAPIKVLHPLLTATQEGNYNGTEGISALPFNGIILAHSNESEWVTFRNNKNNEAFLDRVYIVKVPYCLRISEEIKIYEKLLNHSELTHAPCAPGTLETLSRFSILSRLKEPENSSIYSKMRVYDGESLKDTDPKAKSYQEYRDYAGVDEGMNGLSTRFAFKILSRVFNFDHVEVAANPVHLFYVLEQQIEREQFPQEQAERYLEFLKGYLIPKYAEFIGKEIQTAYLESYSEYGQNIFDRYVTYADFWIQDQEYRDPDTGQLFDRESLNAELEKIEKPAGISNPKDFRNEIVNFVLRARANNSGRNPNWTSYEKLRTVIEKKMFSNTEELLPVISFNAKTSTDEQKKHDDFVDRMMEKGYTRKQVRLLCEWYLRVRKSS [P0ACY3]	3.5 ± 0.94	2.691 ± 0.0021	2.49 ± 0.037	2.38 ± 0.24	2.76 ± 0.21	3.41 ± 0.25	4.77 ± 0.46	3.09 ± 0.1	4.703 ± 0.016	7.66 ± 0.77	2.24 ± 0.06	2.48 ± 0.11
MNIIEANVATPDARVAITIARFNNFINDSLLEGAIDALKRIGQVKDENITVVWVPGAYELPLAAGALAKTGKYDAVIALGTVIRGGTAHFEYVAGGASNGLAHVAQDSEIPVAFGVLTTESIEQAIERAGTKAGNKGAEAALTALEMINVLKAIKA	–	6.4 ± 0.16	6.59 ± 0.59	–	3.16 ± 0.054	6.41 ± 0.27	13.7 ± 0.27	12.8 ± 0.8	5.73 ± 0.29	13.6 ± 0.3	5.79 ± 0.1	6.17 ± 0.85
MNILLAFKAEPDAGMLAEKEWQAAAQGKSGPDISLLRSLLGADEQAAAALLLAQRKNGTPMSLTALSMGDERALHWLRYLMALGFEEAVLLETAADLRFAPEFVARHIAEWQHQNPLDLIITGCQSSEGQNGQTPFLLAEMLGWPCFTQVERFTLDALFITLEQRTEHGLRCCRVRLPAVIAVRQCGEVALPVPGMRQRMAAGKAEIIRKTVAAEMPAMQCLQLARAEQRRGATLIDGQTVAEKAQKLWQDYLRQRMQP	5.73 ± 0.78	–	–	–	–	–	–	–	–	–	–	–
